Results as given in paper PMC11862925.

Experiments:
[1] = target: SARS-CoV-2 RBD (residues 319–541), Wuhan-Hu-1 (SARS-CoV-2) (UniProt P0DTC2); experiment: BLI
ACE2-COMP (human | rat) = ACE2-COMP (human | rat) (UniProt Q9BYF1); experiment: negative stain electron microscopy

Q: What does the source list for “ACE2-COMP (from UniProt Q9BYF1 19-615; P35444 29-73)”?
A: Kd [1]: < 25 pM; percent of bound ACE2 still attached after more than 8 h of dissociation [1]: 90%; stoichiometry N (ACE2-COMP (human | rat)): 5
